# Measurements as given in the nanobody polyreactivity screen of Harvey et al. (2022).
# Assay: yeast display, Sf9 membrane polyspecificity reagent, FACS + sequencing; frameworks hold sequencing errors
# In short: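 Sorting gates, low and high (top ~1%), were placed on anti-HA fluorescence to track expression and on streptavidin fluorescence to track reagent binding. A clone's polyreactivity label is taken from the gate it came out of. The reagent was 10% biotinylated, detergent-solubilized Sf9 membrane, applied for 1 hour at 4 °C to galactose-induced yeast display cells.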
row,Sequence,polyreactivity (PSR sort gate)
1,QVQLVESGGGLVQAGGSLRLSCAASGSIFVEYVMGWYRQAPGKERELVADISWRDGDTYYADSVKGRFTISRDNAKNTVYLQMNSLKPEDTAVYFCAADVIVPESYGYWPLSYYYWGQGTQVTVSS,low polyreactivity
2,QVQLVESGGGLVQAGGSLRLSCAASGSIFVFNAMGWYRQAPGKERELVAAITSGGRTYYADSVKGRFTISRDNAKNTVYLQMNSLKPEDTAVYYCARRYRARGSMYYWGQGTQVTVSS,high polyreactivity
3,QVQLVESGGGLVQAGGSLRLSCAASGSIFVFYAMGWYRQAPGKERELVAAISSVGSTYYADSVKGRFTISRDNAKNTVYLQMNSLKPEDTAVYYCAAVTYYSGYYWGQGTQVTVSS,low polyreactivity
4,QVQLVESGGGLVQAGGSLRLSCAASGSIFVFYAMGWYRQAPGKERELVAAISYRGGSTYADSVKGRFTISRDNEKNTVYLQMNSLKPEDTAVYYCAARGLVRSYDYWGQGTQVTVSS,high polyreactivity
5,QVQLVESGGGLVQAGGSLRLSCAASGSIFVGYAMGRYRQAPGKERELVAAISSRGGSTYYADSVKGRFTISRDNAKNTVYLQMNSLKPEDTGVYYCAAEYRAWWYEYDYWGQGTQVTVSS,high polyreactivity
6,QVQLVESGGGLVQAGGSLRLSCAASGSIFVGYAMGWYRQAPGKERELVAAISRSGGRTYYADSVKGRFTISRDNAKNTVYLQMISLKPEDTAVYYCARQRYEYRTTYYYWGQGTQVTVSS,high polyreactivity
7,QVQLVESGGGLVQAGGSLRLSCAASGSIFVGYAMGWYRQAPGKERELVAAITGSGTRTYYADSVKGRFTISRDNAKNTVYLQMNSLKPEDTAVYYCAAPLSYKNVKYDYWGQGTQVTVSS,low polyreactivity
8,QVQLVESGGGLVQAGGSLRLSCAASGSIFVGYAMGWYRQAPGKEREMVAAITGSGTRTYYADSVKGRFTISRDNAKNTVYLQMNSLKPEDTAVYYCAAPLSYKNVKYDYWGQGTQVTVSS,low polyreactivity
9,QVQLVESGGGLVQAGGSLRLSCAASGSIFVHNDMGWYRQAPGKERELVATIDSAGGTYYADSVKGRFTISRDNAKNTVYLQMNSLKPEDTAVYYCAAYGPYVLSIYDYWGQGTQVTVSS,low polyreactivity
10,QVQLVESGGGLVQAGGSLRLSCAASGSIFVHYAMGGYRQAPGKERELVAAISQRGGSTSYADSVKGRFTISRDNAKNTVYLQMNSLKPEDTAVYYCAAENWIGDYYWGQGTQVTVSS,low polyreactivity
11,QVQLVESGGGLVQAGGSLRLSCAASGSIFVHYAMGWYRQAPGKERELVARISWRGNTYYADSVKGRFTISRDNAKNTVYLQMNSLKPEDTAVYYCAKDVRRSLVIWDVVYPHGYWGQGTQVTVSS,low polyreactivity
12,QVQLVESGGGLVQAGGSLRLSCAASGSIFVIYAMGWYRQAPGKERELVAAITSGGNTTYADSVKGRFTISRDNAKNTVYLQMNSLKPEDTAVYYCAAYSYYTGDQYSYDYWGQGTQVTVSS,low polyreactivity
13,QVQLVESGGGLVQAGGSLRLSCAASGSIFVKYAMGWYRQAPGKERELVAAISGSGGSTYYADSVKGRFTISRDNAKNTVYLQMNSLKPEDTAVYYCAAAYHGRHYYWGQGTQVTVSS,high polyreactivity
14,QVQLVESGGGLVQAGGSLRLSCAASGSIFVLNAMGWYRQAPGKERELVAVISNIGGRTYYADSVKGRFTISRDNAKNTVYLQMNSLKPEDTAVYYCIFRSPSYEYDYWGQGTQVTVSS,low polyreactivity
15,QVQLVESGGGLVQAGGSLRLSCAASGSIFVLNAMGWYRQAPGKEWELVAVISNIGGRTYYADSVKGRFTISRDNAKNTVYLQLNSLKPEDTAVYSCAAPFTSTFDYWGQVTQVTVSS,low polyreactivity
16,QVQLVESGGGLVQAGGSLRLSCAASGSIFVLNAMGWYRQAPGQERELVAAITNVGSTYYADSVKGRFTISRDNAKNTVYLQMNSLKPEDTAVYYCAAVLPFKYDYWGQGTQVTVSS,low polyreactivity
17,QVQLVESGGGLVQAGGSLRLSCAASGSIFVLSAMGWYRQAPGKEREFFAAITWSGDSTYYADSVKGRFTISRDNAKNTVYLQMNSLKPEDTAVYYCAAEGNTWPADFLSYYFEFDEYWGQGTQVTVSS,low polyreactivity
18,QVQLVESGGGLVQAGGSLRLSCAASGSIFVLYAMGWYRQAPGKERELVAAITSAGSTYYADSVKGRFTISRDNAKNTVYLQMNSLKPEDTAVYYCAARRGASQRRYNYWGQGTQVTVSS,high polyreactivity
19,QVQLVESGGGLVQAGGSLRLSCAASGSIFVNNALGWYRQAPGKERELVAAISSRSSRTFYADSVKGRFTISRDNAKNTVYLQMNSLKPEDTAVYYCAVKKRAPDGDYWGQGTQVTVSS,high polyreactivity
20,QVQLVESGGGLVQAGGSLRLSCAASGSIFVNNAMGWYRQAPGKERELVAAIRRGSSTNYADSVKGRFTISRDNAKNTVYLQMNSLKPEDTAVYDCAADHDDDEAQNYDYLGQGTQVTVSS,low polyreactivity
21,QVQLVESGGGLVQAGGSLRLSCAASGSIFVNNAMGWYRQAPGKERELVAAISSRGGSTYYADSVKGRFTISRDNAKNTVYLQMNSLKPEDTAVYYCAAEYDGPYYSFYPEQRYYWGLGTQVTVSS,low polyreactivity
22,QVQLVESGGGLVQAGGSLRLSCAASGSIFVNYAIGWYRQAPGKERELVAAISRSGGRTYYADSVKGRFTISRDNAMNSVYLQMNSLKPEDTAVYYCNVYPVLRTIEGDYWGQGTQVTVSS,high polyreactivity

row,Sequence,polyreactivity (PSR sort gate)
1,QVQLVESGGGLVQAGGSLRLSCAASGSIFVPNAMGWYRQAPGKERELVAAITSGGSTYYADSVKGRFTISRDNAKNTVYLQMNSLKPEDTAVYYCAAEYWLGLYTYDYWGQGTQVTVSS,high polyreactivity
2,QVQLVESGGGLVQAGGSLRLSCAASGSIFVPYAMGWYRQAPGKERELVAAISYRGGNTYYADSVKGRFTISRDKAKNTVSLQMNSLKPEDTAVYYCNAGVSIGRSRRDDYWGQGTQVTVSS,low polyreactivity
3,QVQLVESGGGLVQAGGSLRLSCAASGSIFVQNAMGWYRQAPGKERELVAAINSGGSTYYADSVKGRFTISRDNANNTVYLQMNSLKPEDTAVYYCAADHNYYAYSYYYWGQGTQVTVSS,low polyreactivity
4,QVQLVESGGGLVQAGGSLRLSCAASGSIFVRNAMGWYRQAPGKERELVAAITSDVNTYYADSVKGRFTISRDNGKNTVYLQMNSLKPEDTAVYYCAKGVTSQPNDPAPFPRYEYWGQGTQVTVSS,low polyreactivity
5,QVQLVESGGGLVQAGGSLRLSCAASGSIFVRNTMGWYRQAPGKERELVASIDWSGGITYYADSVKGRFTISRDNAKNTVYLQMNSLKPEDTAVYYCNAVFLYPFNVPTMEYWGQGTQVTVSS,low polyreactivity
6,QVQLVESGGGLVQAGGSLRLSCAASGSIFVRNTMGWYRQAPGKERELVATISSGGRTNYADSVKGRFTISRDNAKNTVYLQMNSLKPEDTAVYYCNRPRWYGGSPYYYWGQGTQVTVSS,high polyreactivity
7,QVQLVESGGGLVQAGGSLRLSCAASGSIFVRNTMGWYRQAPGKERELVATISSGGRTYYADSVKGRFTISRDNAKNTVYLQMNSLKPEDTAVYYCAAGYSYAQYSYPFLSFAFGYWGQGTQVTVSS,high polyreactivity
8,QVQLVESGGGLVQAGGSLRLSCAASGSIFVRNVMGLYRQAPGKERELVATIRYRGGSTYYADSVKGRFSISRDNAKNTVYLQMNSLKPEDTAVYYCNARYLWADEYYYWGQGTQVTVSS,low polyreactivity
9,QVQLVESGGGLVQAGGSLRLSCAASGSIFVRYAMGWYRQAPGKERELVAAFTSSAGSTYYADSVKGRFTISRDNAKNTVYLQMNSLKPEDTAVYYCAAVRYYPSKFYYWGQGTQVTVSS,high polyreactivity
10,QVQLVESGGGLVQAGGSLRLSCAASGSIFVSNAMGWYRQAPGKERELVAAISYSTSRTYYADSVKGRFTISRDNAKNTVYLQMNSLKPEDTAVYYCAVRVRVADGRSNYWGQGTQVTVSS,high polyreactivity
11,QVQLVESGGGLVQAGGSLRLSCAASGSIFVTNAMGWYRQAPGKEREWVAAISVSGGSTYYADSVKGRFTISRDNAKNTVYLQMNSLKPEDTAVYYCAAPGRLFSLYDYWGQGTQVTVSS,low polyreactivity
12,QVQLVESGGGLVQAGGSLRLSCAASGSIFVTYAMGWYRQAPGKERELVAVITWGGGSTYYADSVKGRFTISRDNAKNTVYLQMNSLKQEDTAVYYCAKDAFFTEIAIRDHIISHHYYWGQGTQVTVSS,low polyreactivity
13,QVQLVESGGGLVQAGGSLRLSCAASGSIFVTYGMGWYRQAPGKERELVARITTSGGSTYYADSVKGRFTISRDNAKNTVYLQMNSLKQEDTAVYYCNVRFAWGWTYWRYDYWGQGTQVTVSS,high polyreactivity
14,QVQLVESGGGLVQAGGSLRLSCAASGSIFVVNAMGWYRQAPGKERELVAGISFRGGTTYYADSVKGRFTISRDNAMNTVYLQMNSLKPEDTAVYYCNAVYTSNRNEYDYWGQGTQVTVSS,low polyreactivity
15,QVQLVESGGGLVQAGGSLRLSCAASGSIFVVYAMGWYRQAPGKERELVAGISDGDNTNYADSVKGRFTISRDNAKNTVYLQMNSLKPEDTAVYYCNADGTSRNLEGFDYWGQGTQVTVSS,low polyreactivity
16,QVQLVESGGGLVQAGGSLRLSCAASGSIFVWYAMGWYRQAPGKERELVARITSGGRTNYADSVKGRFTISRDNAKNTVYLQMNSLKPEDTAVYDCAAGRVSWSPYYYWGQGTQVNVSS,high polyreactivity
17,QVQLVESGGGLVQAGGSLRLSCAASGSIFVWYVMGWYRQAPGKERELVAVISRSGGSTYYADSVKGRFTISRDNAKNTVYLQMNSLKPEDTAVYYCAADSRSYYRDVDYWGQGTQVTVSS,low polyreactivity
18,QVQLVESGGGLVQAGGSLRLSCAASGSIFVYNAMGRYRQAPGKERELVAAISRSGASTYYADSVKGRFTISRDNAKNTVYLQMNSLKPEDTAVYYCAAEFRQGGYTFGYWGQGTQVTVSS,high polyreactivity
19,QVQLVESGGGLVQAGGSLRLSCAASGSIFVYNAMGWYRQAPGKEREFVAAITKRVGRTYYADSVKGRFTISRDNAKNTVYLQMNSLKPEDTAVYYCAAVLSYTGGFDYWGQGTQVTVSS,high polyreactivity
20,QVQLVESGGGLVQAGGSLRLSCAASGSIFVYNAMGWYRQAPGKERELVAAISTSGGRTYYADSVKGRFTISRDNAKNTVYLQMNSLKPEDTAVYYCNALGYWRRVVDGFDYWGQGTQVTVSS,high polyreactivity
21,QVQLVESGGGLVQAGGSLRLSCAASGSIFVYNAMGWYRQAPGKEREWVAGITLIGGSTYYADSVKGRFTISRDNAKNTVYLQMNSLKPEDTAVYYCNADVAPGIFYGYDSWGQGTQVTVSS,low polyreactivity
